Experimental data from US20230192839A1, “ANTIBODIES HAVING CONDITIONAL AFFINITY AND METHODS OF USE THEREOF” (PFIZER INC., priority 2017, published 2023).
Changes are numbered by the printed parent chain. One block for each molecule: values may come before it.

Key:
MV4-11 cells = assay: Sequential rounds of in vitro cytotoxicity assays with changing MTX concentration (reversible inhibition); assay type: cell-based, human; settings: Round 0-1 no MTX, then 100 µM MTX at Round 1-2 and Round 2-3; FIGS. 9A and 9B
Description: The anti-CD33 clones tested in this example were: P03_A01, P07_C04, and P02_D09. In addition, a tool T cell was prepared as described in Example 4, as were untransduced T cells. Also, each of the different conditional CAR T cells described above was generated in triplicate from PBMC cells from three different human donors. The target cell line used in this assay was MV4-11; these cells were transduced to stably express GFP and firefly luciferase, as described in Example 5.
This experiment involved a series of in vitro cytotoxicity assays, in which co-cultures of T cells and MV4-11 target cells were incubated together for multiple rounds of sequential cytotoxicity assays, in which the MTX concentration changed at different rounds of the assays. In vitro cytotoxicity assays were carried out in 24-well plates by co-culturing 200,000 T cells with 200,000 MV4-11 cells, for each different T cells described above. In addition, each of the co-cultures contained either 100 µM MTX or 0 µM MTX at different times, as indicated by the schematics in FIGS. 9A and 9C. In both conditions, 1 mM leucovorin was supplemented to circumvent MTX toxicity. For each round of the assay, co-cultures were maintained in a final volume of 500 µl of RPMI 1640 medium at 37 C with 5% CO2 for 48 hours. At the end of each round, cells were spun down (250 × g, 10 minutes), supernatant was removed, and fresh media containing fresh MV4-11 cells, leucovorin, and optionally MTX were added according to the schematics shown in FIGS. 9A and 9C. Target cell killing was assessed and plotted as described in Example 4.
In comparing the different panels of FIGS. 9A-9D, note that the schematics shown in FIGS. 9A and 9C indicate the MTX concentration in the co-culture at the start of the assay for a given round, whereas the results from that assay are shown the next round number in FIGS. 9B and 9D, respectively. […]

human CD33 = assay: Biacore SPR binding kinetics of anti-CD33 scFv-Fc clones with or without 10 µM MTX; settings: CD33, 37° C., pH 7.4
From the text: The first 4 rounds of panning used biotinylated CD33 antigen captured on streptavidin or neutravidin coated 96-well plates. […] 1536 clones were randomly chosen from the 4th and 5th round of panning against the CD33 antigen and their binding specificity determined by phage ELISA. Clones that specifically bound to CD33 were sequenced and all unique clones were subjected to a phage competition ELISA to assess their relative affinities to CD33 and sensitivity to MTX by measuring their binding strengths in the presence or absence of 10 µM (micromolar) MTX (i.e. in 0 or 10 µM MTX).
(§1) All binding kinetics analysis was performed on label-free Biacore surface plasmon biosensors (Biacore T200™ from GE Life Sciences) at 37° C. in 10 mM Hepes pH 7.4, 150 mM NaCl, 0.05% Tween-20 (HBST+), with or without 10 µM MTX. The Biacore data were processed in Biacore T200 Evaluation Software, and the data were double-referenced (Myszka, 1999, J Mol Recognit 12(5):279-284) and fit globally to a simple Langmuir with mass transport model to determine the equilibrium dissociation constant, KD, from the ratio of the kinetic rate constants (KD = koff/kon). In some cases the binding of antigen was very low (or not detectable) in the presence of 10 µM MTX and as a result kinetic rate constants could not be accurately determined. In these cases, a KD (or KD limit) was estimated based on the binding response at the highest analyte concentration tested or based on the typical limit of detection for a Biacore T200.

[1] = tested on: human epidermal growth factor receptor (EGFR); assay: Biacore SPR binding kinetics of anti-EGFR scFv-Fc clones with or without 10 µM MTX; settings: 37° C.; for koff, kinetics toward antigen with 0 µM MTX / kon, kinetics toward antigen with 0 µM MTX / koff, kinetics toward antigen with 10 µM MTX / kon, kinetics toward antigen with 10 µM MTX: pH 7.4, scFv-Fc; for Kd / koff, kinetics toward antigen with 10 µM MTX / kon, kinetics toward antigen with 10 µM MTX: 10 µM MTX; for Kd: pH 7.4, koff/kon, or estimated from binding response / limit of detection for weak interactions, read-out: KD, kinetics toward antigen with 10 µM MTX
Description: as §1, with “T200. […]” for “T200.”

koff, kinetics toward antigen with 0 µM MTX (human CD33; scFv-Fc): 0.0029 s⁻¹
kon, kinetics toward antigen with 0 µM MTX (human CD33; scFv-Fc): 95000 M⁻¹ s⁻¹
koff, kinetics toward antigen with 10 µM MTX (human CD33; 10 µM MTX, scFv-Fc): 0.025 s⁻¹
kon, kinetics toward antigen with 10 µM MTX (human CD33; 10 µM MTX, scFv-Fc): 170000 M⁻¹ s⁻¹
B1: P07_C04: anti-CD33 clone with conditional affinity; VH SEQ ID NO: 25, VL SEQ ID NO: 26; also as scFv in CAR (antibody, V domains shown)
VH: QVQLVESGGGLVQAGGSLRLSCAASRRSSRSWAMHWVRQAPGKGLEWVAVISYDGRLKYYADSVKGRFTISRDNAEYLVYLQMNSLRAEDTAVYYCAAEPDGEGTNGGLDIWGQGTLVTVSS
VL: DIQMTQSPSSLSASVGDRVTITCRASQNISRYLNWYQQKPGKAPKLLIYSASSLQTGVPSRFSGSGSGTDFTLTISSLQPEDFATYYCQQSYSSGAFGQGTKVEIK
modifications: Synthetic Antibody
notes: also as scFv in CAR
target cell killing when MTX is added to active CAR T cells ("on" to "off") (MV4-11 cells): quick inhibition rates

koff, kinetics toward antigen with 0 µM MTX [1]: 0.27 s⁻¹
kon, kinetics toward antigen with 0 µM MTX [1]: 330000 M⁻¹ s⁻¹
Kd [1]: > 9.37 µM
B4: P07_H08: anti-EGFR clone with conditional affinity; VH SEQ ID NO: 121, VL SEQ ID NO: 122; also as scFv in CAR (antibody, V domains shown)
VH: QVQLVESGGGLVQAGGSLRLSCAASRRSSRSWAMHWVRQAPGKGLEWVAVISYDGRLKYYADSVKGRFTISRDNAEYLVYLQMNSLRAEDTAVYYCAAGFDWGWDSSDIYSAMDYWGQGTLVTVSS
VL: DIQMTQSPSSLSASVGDRVTITCRASQNIGRYLHWYQQKPGKAPKLLIYSASNLQSGVPSRFSGSGSGTDFTLTISSLQPEDFATYYCQQSYSSPFTFGQGTKVEIK
modifications: Synthetic Antibody
notes: also as scFv in CAR

koff, kinetics toward antigen with 0 µM MTX [1]: 0.028 s⁻¹
kon, kinetics toward antigen with 0 µM MTX [1]: 120000 M⁻¹ s⁻¹
koff, kinetics toward antigen with 10 µM MTX [1]: 0.05 s⁻¹
kon, kinetics toward antigen with 10 µM MTX [1]: 87000 M⁻¹ s⁻¹
B6: P05_A11: anti-EGFR clone with conditional affinity; VH SEQ ID NO: 133, VL SEQ ID NO: 134; also as scFv in CAR (antibody, V domains shown)
VH: QVQLVESGGGLVQAGGSLRLSCAASRRSSRSWAMHWVRQAPGKGLEWVAVISYDGRLKYYADSVKGRFTISRDNAEYLVYLQMNSLRAEDTAVYYCAASDDADIFDDYSYGAMDYWGQGTLVTVSS
VL: QSVLTQPPSASGTPGQRVTISCSGSSSNIGRNYVYWYQQLPGTAPKLLIYMTSQRPSGVPDRFSGSKSGTSASLAISGLRSEDEADYYCASWDDNLRAWVFGTGTKLTVL
modifications: Synthetic Antibody
notes: also as scFv in CAR

koff, kinetics toward antigen with 0 µM MTX [1]: 0.00067 s⁻¹
kon, kinetics toward antigen with 0 µM MTX [1]: 110000 M⁻¹ s⁻¹
koff, kinetics toward antigen with 10 µM MTX [1]: 0.00072 s⁻¹
kon, kinetics toward antigen with 10 µM MTX [1]: 29000 M⁻¹ s⁻¹
B8: P14_E03: anti-EGFR clone with conditional affinity; VH SEQ ID NO: 125, VL SEQ ID NO: 126 (antibody, V domains shown)
VH: QVQLVESGGGLVQAGGSLRLSCAASRRSSRSWAMHWVRQAPGKGLEWVAVISYDGRLKYYADSVKGRFTISRDNAEYLVYLQMNSLRAEDTAVYYCAAAPRVDWSDVSSGIDYWGQGTLVTVSS
VL: QSVLTQPPSASGTPGQRVTISCSGSISNIGTNNVYWYQQLPGTAPKLLIYRNNQRPSGVPDRFSGSKSGTSASLAISGLRSEDEADYYCSAWDDSLSGVVFGTGTKLTVL
modifications: Synthetic Antibody

Second part, the molecule before the results:

B2: P03_A01: anti-CD33 clone with conditional affinity; VH SEQ ID NO: 19, VL SEQ ID NO: 20; also as scFv in CAR (antibody, V domains shown)
VH: QVQLVESGGGLVQAGGSLRLSCAASRRSSRSWAMHWVRQAPGKGLEWVAVISYDGRLKYYADSVKGRFTISRDNAEYLVYLQMNSLRAEDTAVYYCAAETGSVGLDYWGQGTLVTVSS
VL: B1 VL with N28G, R31T, S50G, S52T, Q55E, T56S, S91G, S94Q, A96T
modifications: Synthetic Antibody
notes: also as scFv in CAR
target cell killing when MTX is added to active CAR T cells ("on" to "off") (MV4-11 cells): requires two rounds of MTX to be fully inhibited
koff, kinetics toward antigen with 0 µM MTX (human CD33; scFv-Fc): 0.0057 s⁻¹
kon, kinetics toward antigen with 0 µM MTX (human CD33; scFv-Fc): 50000 M⁻¹ s⁻¹

B3: P03_G12: anti-CD33 clone with conditional affinity; VH SEQ ID NO: 21, VL SEQ ID NO: 22 (antibody, V domains shown)
VH: QVQLVESGGGLVQAGGSLRLSCAASRRSSRSWAMHWVRQAPGKGLEWVAVISYDGRLKYYADSVKGRFTISRDNAEYLVYLQMNSLRAEDTAVYYCAADPTEGWSYLDYWGQGTLVTVSS
VL: B1 VL with N28G, R31S, S50G, S53R, T56S, S91G, A96T
modifications: Synthetic Antibody
koff, kinetics toward antigen with 0 µM MTX (human CD33; scFv-Fc): 0.0094 s⁻¹
kon, kinetics toward antigen with 0 µM MTX (human CD33; scFv-Fc): 71000 M⁻¹ s⁻¹
Kd (human CD33; 10 µM MTX, koff/kon, or estimated from binding response / limit of detection for weak interactions, read-out: KD, kinetics toward antigen with 10 µM MTX): > 10.9 µM

B5: P01_B06: anti-EGFR reference clone, less than 2-fold MTX effect; VH SEQ ID NO: 129, VL SEQ ID NO: 130 (antibody, V domains shown)
VH: QVQLVESGGGLVQAGGSLRLSCAASRRSSRSWAMHWVRQAPGKGLEWVAVISYDGRLKYYADSVKGRFTISRDNAEYLVYLQMNSLRAEDTAVYYCAADTSMFASYDPMDVWGQGTLVTVSS
VL: B6 VL with Y35N, M51R, T52D, S53D, Q54H, N95T, R97S, A98G
modifications: Synthetic Antibody
koff, kinetics toward antigen with 0 µM MTX [1]: 0.024 s⁻¹
kon, kinetics toward antigen with 0 µM MTX [1]: 100000 M⁻¹ s⁻¹
koff, kinetics toward antigen with 10 µM MTX [1]: 0.026 s⁻¹
kon, kinetics toward antigen with 10 µM MTX [1]: 100000 M⁻¹ s⁻¹

B7: P01_F02: anti-EGFR clone with conditional affinity; VH SEQ ID NO: 119, VL SEQ ID NO: 120; also as scFv in CAR (antibody, V domains shown)
VH: QVQLVESGGGLVQAGGSLRLSCAASRRSSRSWAMHWVRQAPGKGLEWVAVISYDGRLKYYADSVKGRFTISRDNAEYLVYLQMNSLRAEDTAVYYCAADVESALAYGEPYHHMDVWGQGTLVTVSS
VL: B6 VL with M51R, S91T, N95S, R97S, A98G
modifications: Synthetic Antibody
notes: also as scFv in CAR
koff, kinetics toward antigen with 0 µM MTX [1]: 0.011 s⁻¹
kon, kinetics toward antigen with 0 µM MTX [1]: 61000 M⁻¹ s⁻¹
Kd [1]: > 9.41 µM
